Measured values taken from patent publication US8778303B2, “99mTc-labeled 19 amino acid containing peptide for use as phosphatidylethanolamine binding molecular probe and radiopharmaceutical” (The Medical College of Wisconsin, Inc., priority 2008, dated 2014).
“Also recorded” adds a separate entry of the source.

Key:
[1] = Biodistribution studies in healthy rats; type: in vivo, rat
Procedure: Biodistribution studies. […] Dynamic whole-body biodistribution profile was acquired using an in-house gamma camera (GE XRT). The anesthetized animal was continuously imaged at an energy window of 140±15 keV, field of view 22.5×22.5 cm, matrix 128×128, at 1 min per image for up to 60 min post-injection.
For quantitative biodistribution, at each designated time point after intravenous injection of radiolabeled Duramycin, including 0, 1, 5, 15, 30, and 60 min, a group of 4 rats were sacrificed. Various tissues were dissected, rinsed in saline, weighed, and the level of radioactivity was determined using direct gamma counting (140±15 keV).

AMI = assay: Window of detection for AMI, planar imaging and autoradiography; type: in vivo, rat
acute cardiac cell death = assay: In vivo imaging of acute cardiac cell death, rat model of ischemia and reperfusion
stroke = conditions: in vivo
[2] = Stability of purified radiotracer in aqueous solution; type: physicochemical; conditions: once purified
Procedure: HPLC method 2. Jupiter C18 column (90 Å pore size, 250×4.6 mm) was used with a buffered mobile phase system consisting of phosphate buffer (10 mM sodium phosphate, pH 6.7) and acetonitrile at a flow rate of 1.0 ml/min at room temperature. A baseline of 5 min at 90% buffer A (phosphate buffer, pH6.7) and 10% buffer B (acetonitrile) was followed by a linear gradient to 10% buffer A and 90% buffer B in 30 min. The level of radioactivity in the HPLC elute was monitored by gamma counting at an energy window of 140±15 keV.
HYNIC-Duramycin was labeled with ^99mTc using the tricine-phosphine co-ligand system. Specifically, 15 μg of HYNIC-Duramycin was mixed with 40 mg of tricine, 1 mg of TPPTS and 20 μg SnCl2 in 0.8 ml at pH 5.3. The labeling was initiated with the addition of about 1 mCi of ^99mTc. The incubation was allowed to proceed for 40 min at room temperature. The final radiopharmaceutical, ^99mTc-HYNIC-Duramycin, was analyzed and purified using HPLC method 2. After purification, acetonitrile was removed by evaporation under nitrogen, and ^99mTc-HYNIC-Duramycin was reconstituted in saline for usage. ^99mTc-HYNIC-Duramycin^1 was synthesized in the same fashion. For stability tests, cysteine challenge was carried out at a cysteine-to-^99mTc-Duramycin ratio of 100 to 1, in 0.01 mM phosphate buffer (pH 6.8) for 2 hr at room temperature. The sample was analyzed with radioHPLC (method 2).

[3] = test system: heart transplant rejection; assay: Imaging in rat model of heart transplant rejection; type: in vivo; conditions: days four and six post transplantation
Procedure: In another experimental example, using a rat model of heart transplant rejection, rats were given heart allograft transplants, and other rats were given heart isograft transplants. Four and six days after heart tissue transplantation, the rats were injected with 99mTc-Duramycin and subsequently imaged.

[4] = Competition assay with phospholipid liposomes on apoptotic cells; type: binding; conditions: for binding to apoptotic cells in the presence of PtdE-containing liposomes: increasing concentration of PtdC/PtdE liposomes
Procedure: Preparation of liposomes. Liposomes with the following chemical compositions were made: PtdC (100%), PtdC/PtdE (50/50, w/w), PtdC/PtdS (50/50, w/w), PtdC/PtdG (50/50, w/w). Solid phospholipids were weighed to contain 2 mg for each type of lipids in separate glass test tubes (10×140 mm). One ml of chloroform was used to completely dissolve the phospholipid in each tube. The chloroform was evaporated under a stream of nitrogen where the dried phospholipids formed a thin film of residue on the test tube wall. The samples were thoroughly dried under vacuum overnight. The next morning each sample was re-suspended in 2 ml of HEPES buffer (15 mM HEPES, 120 mM NaCl, pH 7.4) at 45° C. Each suspension was sonicated for 2-5 min at 15 sec each cycle until the mixture turned into an opaque appearance, which indicated the formation of multi-laminar liposomes. The samples were kept on ice until use.
Competition assay. The retention of the binding activity was determined using a competition assay in the presence of PtdE-containing liposomes. PtdC/PtdE liposomes was prepared as described herein. Binding assay was carried out in triplicate in the presence of increasing amount of PtdC/PtdE liposomes, from 1 nM to 10 μM final concentration in 4-fold increments. The radioactivity bound to the cell pellet was determined by gamma counting as described in the precious paragraph. The assay was repeated using liposomes containing other species of closely related phospholipids, including PtdC, PtdG, and PtdS.

[5] = Procedure: Blood half-life and pharmacokinetic studies. The animal protocol used was approved by the Institutional Animal Care and Use Committee under the NIH guideline. Healthy Sprague Dawley rats were injected with radiolabeled Duramycin (2.3 nmole) via the tail vein. At each designated time point, including 0, 1, 5, 15, 30, and 60 min, 50 μl of blood was withdrawn from a pre-installed femoral artery catheter and collected in heparinized tubes. The blood sample was centrifuged at 5000 g, and the radioactivity in the cellular and plasma fractions was measured separately by direct gamma counting using an energy window of 140±15 keV. The data output included total blood activity with time, and the activity associated with blood cells and the plasma, respectively. The blood half-life measurement was conducted in triplets. To analyze the pharmacokinetics of the radiopharmaceutical, 10 μl of the plasma or urine sample was analyzed using HPLC method 2 which involves the physical separation of molecules based upon the matrix-solvent interactions.
breast tumor = assay: Imaging in chemical-induced breast cancer model with doxorubicin treatment; type: in vivo, rat
From the text: In an experimental example using a chemical-induced breast cancer model in rats, breast tumors were allowed to grow to palpable size prior to doxorubicin treatment (see arrow, FIG. 9B).

Work on `CC(C)=NNc1ccc(C(=O)NCCCC[C@@H]2NC(=O)[C@@H](N)CS[C@@H](C)[C@H]3NC(=O)[C@H](CC(N)=O)NC(=O)CNC(=O)[C@H]([C@@H](O)C(=O)O)NC(=O)[C@@H]4CSC[C@@H](NC(=O)[C@H](CCC(N)=O)NC2=O)C(=O)N[C@H]2CS[C@@H](C)[C@@H](NC(=O)[C@H](Cc5ccccc5)NC(=O)[C@@H]5CCCN5C(=O)CNC(=O)[C@H](Cc5ccccc5)NC(=O)[C@H](CNCCCC[C@@H](C(=O)O)NC3=O)NC2=O)C(=O)N[C@@H](Cc2ccccc2)C(=O)N[C@@H](C(C)C)C(=O)N4)cn1` [^99mTc-HYNIC-Duramycin, metal not drawn] yielded a tissue uptake at 1 h ([1]; Sprague Dawley, rat, 2.3 nmole, total radioactivity, Bone, healthy rats, intravenous, 60 min post-injection (n=4)) of 0.04 ± 0.01 %ID/g, a tissue uptake at 1 h ([1]; Sprague Dawley, rat, 2.3 nmole, total radioactivity, Brain, healthy rats, intravenous, 60 min post-injection (n=4)) of 0.01 ± 0.01 %ID/g and a tissue uptake at 1 h ([1]; Sprague Dawley, rat, 2.3 nmole, total radioactivity, Colon, healthy rats, intravenous, 60 min post-injection (n=4)) of 0.11 ± 0.01 %ID/g. The tissue uptake at 1 h ([1]; Sprague Dawley, rat, 2.3 nmole, total radioactivity, Fat, healthy rats, intravenous, 60 min post-injection (n=4)) was 0.06 ± 0.06 %ID/g, the tissue uptake at 1 h ([1]; Sprague Dawley, rat, 2.3 nmole, total radioactivity, Heart, healthy rats, intravenous, 60 min post-injection (n=4)) was 0.21 ± 0.16 %ID/g and the tissue uptake at 1 h ([1]; Sprague Dawley, rat, 2.3 nmole, total radioactivity, Kidney, healthy rats, intravenous, 60 min post-injection (n=4)) was 2.32 ± 0.48 %ID/g. The tissue uptake at 1 h ([1]; Sprague Dawley, rat, 2.3 nmole, total radioactivity, Liver, healthy rats, intravenous, 60 min post-injection (n=4)) was 0.28 ± 0.01 %ID/g, the tissue uptake at 1 h ([1]; Sprague Dawley, rat, 2.3 nmole, total radioactivity, Lung, healthy rats, intravenous, 60 min post-injection (n=4)) was 0.12 ± 0.05 %ID/g and the tissue uptake at 1 h ([1]; Sprague Dawley, rat, 2.3 nmole, total radioactivity, Muscle, healthy rats, intravenous, 60 min post-injection (n=4)) was 0.03 ± 0.01 %ID/g. The tissue uptake at 1 h ([1]; Sprague Dawley, rat, 2.3 nmole, total radioactivity, Pancreas, healthy rats, intravenous, 60 min post-injection (n=4)) was 0.05 ± 0.01 %ID/g, the tissue uptake at 1 h ([1]; Sprague Dawley, rat, 2.3 nmole, total radioactivity, Skin, healthy rats, intravenous, 60 min post-injection (n=4)) was 0.01 ± 0.01 %ID/g and the tissue uptake at 1 h ([1]; Sprague Dawley, rat, 2.3 nmole, total radioactivity, Small intestine, healthy rats, intravenous, 60 min post-injection (n=4)) was 0.37 ± 0.07 %ID/g. It also gave a tissue uptake at 1 h ([1]; Sprague Dawley, rat, 2.3 nmole, total radioactivity, Spleen, healthy rats, intravenous, 60 min post-injection (n=4)) of 0.1 ± 0.02 %ID/g, a tissue uptake at 1 h ([1]; Sprague Dawley, rat, 2.3 nmole, total radioactivity, Stomach, healthy rats, intravenous, 60 min post-injection (n=4)) of 0.11 ± 0.01 %ID/g and a tissue uptake at 1 h ([1]; Sprague Dawley, rat, 2.3 nmole, total radioactivity, Thymus, healthy rats, intravenous, 60 min post-injection (n=4)) of 0.06 ± 0.02 %ID/g. For the same molecule, the tissue uptake at 1 h ([1]; Sprague Dawley, rat, 2.3 nmole, total radioactivity, Thyroid, healthy rats, intravenous, 60 min post-injection (n=4)) was 0.08 ± 0.03 %ID/g, the excreta dose per gram or mL at 1 h ([1]; Sprague Dawley, rat, 2.3 nmole, total radioactivity, Urine, healthy rats, intravenous, 60 min post-injection (n=4), read-out: Uptake) was 22.1 ± 13.2 %ID/g and the tissue uptake at 1 h ([1]; Sprague Dawley, rat, whole blood, 2.3 nmole, total radioactivity, Blood, healthy rats, intravenous, 60 min post-injection (n=4)) was 0.33 ± 0.11 %ID/g. For the same molecule, the “signs of toxicity or other adverse effects” value ([1]; at the current dosage tested, rats) was “no signs of toxicity or other adverse effects were observed”, the brain uptake ([1]; healthy rats) was “low” and the route of clearance ([1]; healthy rats) was “renal excretion is the predominant route of clearance”. For the same molecule, the “uptake in the hepatic and gastrointestinal regions” value ([1]; healthy rats) was “low uptake; also recorded: very low”, the “decline of signal-to-background ratio in autoradiographs” value (AMI; at 24 hr compared with 2 hr post infarction) was 32% and the “decline of signal-to-background ratio in autoradiographs” value (AMI; at 48 hr compared with 2 hr post infarction) was 43%. The “average radioactivity at the infarct site” value (acute cardiac cell death; at 1 hr post-injection) was “above 4.0 % ID/g”, the infarct-to-lung ratio (acute cardiac cell death; at 2 hr after injection (n=3)) was 4.8±0.4 and the infarct-to-muscle ratio (acute cardiac cell death; at 2 hr after injection (n=3)) was 12.2±1.3. For the same molecule, the “time after injection at which focal uptake was seen at the infarct” value (acute cardiac cell death; dynamic images, as early as) was 10 min, the “average radioactivity at the infarct site” value (acute cardiac cell death; rat, in vivo) was “less than 1.0 % ID/g” and the “retention / washout of radioactivity in the infarct” value (acute cardiac cell death; rat, in vivo) was “accompanied with a washout”. For the same molecule, the “uptake in brain, rat stroke model” value (stroke) was “Focal uptake of radioactivity is colocalized with regions of stroke”, the “time with no significant level of detached 99mTc detected” value [2] was “at least 24 hrs” and the “uptake in heart allografts in contrast to isografts” value [3] was “Markedly elevated”. The “binding to apoptotic cells in the presence of liposomes of other phospholipids” value ([4]; PtdC, PtdG or PtdS liposomes) was “unable to competitively reduce”, the “binding to apoptotic cells in the presence of PtdE-containing liposomes” value [4] was “competitively abolished; also recorded: exclusively and competitively diminished” and the “binding to apoptotic cells in the presence of PtdE-containing liposomes” value ([4]; listed as 99mTc-HYNIC-Duramycin^1) was “not competitively diminished”. For the same molecule, the “radio-HPLC analysis of plasma samples” value ([5]; after intravenous injection) was “majority of the injected radioactivity remained as the parent”, the “radioactivity in the blood associated with the plasma fraction” value ([5]; all time points) was “greater than 95%” and the “uptake in treated breast tumor” value (breast tumor; after a single cycle of doxorubicin) was “elevated”. For the same molecule, the “cardiac uptake after doxorubicin” value (breast tumor; rat, in vivo) was “also elevated”.
